Results on 15 molecules are retold here after patent US20230242658A1 (published 2023).

Experiment [1] concerns the target T1, human 4-1BB on CHO-K1 cells (human, UniProt Q07011 24-255). The experiment in a line: FACS blocking of 4-1BBL.
The target in experiment [2] is T1, human 4-1BB on CHO-K1 cells. As to the kind of experiment: FACS.
Experiment [3] addresses T2, cynomolgus monkey 4-1BB on CHO-K1 cells (cynomolgus monkey).
T2 chain: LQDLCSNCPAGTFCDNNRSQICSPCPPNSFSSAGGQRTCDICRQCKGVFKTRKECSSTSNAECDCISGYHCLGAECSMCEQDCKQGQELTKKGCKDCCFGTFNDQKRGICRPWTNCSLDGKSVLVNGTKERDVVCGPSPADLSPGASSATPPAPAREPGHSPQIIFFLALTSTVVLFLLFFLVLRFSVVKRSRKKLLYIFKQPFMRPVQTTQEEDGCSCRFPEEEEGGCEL
As to the kind of experiment: FACS; FIG. 12C. (Flow cytometry measures light scatter and fluorescence of single cells or particles in a stream.)

Experiment [4] concerns the target T2, cynomolgus monkey 4-1BB on CHO-K1 cells. The experiment in a line: FACS.
In experiment [5] the target is human PD-L1 on CHO-K1 cells (human, UniProt Q9NZQ7 19-290). As to the kind of experiment: FACS.
Experiment [6] deals with T1, human 4-1BB on CHO-K1 cells. As to the kind of experiment: FACS; FIG. 11M.
Target sequence in this assay (Q07011 24-255): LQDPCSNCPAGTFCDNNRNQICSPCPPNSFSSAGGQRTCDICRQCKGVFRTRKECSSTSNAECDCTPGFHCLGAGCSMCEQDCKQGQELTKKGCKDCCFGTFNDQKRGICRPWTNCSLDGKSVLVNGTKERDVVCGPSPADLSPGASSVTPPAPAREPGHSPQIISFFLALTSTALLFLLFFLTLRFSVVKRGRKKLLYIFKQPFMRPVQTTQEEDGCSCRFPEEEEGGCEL
The target of experiment [7] is T2, cynomolgus monkey 4-1BB on CHO-K1 cells. The experiment in a line: FACS; FIG. 12L.
Experiment [8] has as its target T1, human 4-1BB on CHO-K1 cells. As to the kind of experiment: FACS blocking of 4-1BBL. This is another data set of the same source.
Target sequence in this assay (Q07011 24-255): as above
The target is the same in experiment [9]. As to the kind of experiment: FACS; FIG. 11L.
Target sequence in this assay (Q07011 24-255): as above
Experiment [10] has as its target T2, cynomolgus monkey 4-1BB on CHO-K1 cells. As to the kind of experiment: FACS; FIG. 12K.
Experiment [11] shares this target. As to the kind of experiment: FACS.
The target is the same in experiment [12]. The experiment in a line: FACS; FIG. 12J.
The target of experiment [13] is T1, human 4-1BB on CHO-K1 cells. As to the kind of experiment: FACS; FIG. 11K.
Target sequence in this assay (Q07011 24-255): as above
For experiment [14] the target is unchanged. The experiment in a line: FACS blocking of 4-1BBL; FIG. 14F.
Experiment [15] deals with T2, cynomolgus monkey 4-1BB on CHO-K1 cells. The experiment in a line: FACS; FIG. 12F.
Experiment [16] deals with T1, human 4-1BB on CHO-K1 cells. The experiment in a line: FACS. This is another data set of the same source.
Target sequence in this assay (Q07011 24-255): as above

Sequence of human PD-L1 on CHO-K1 cells (Q9NZQ7 19-290): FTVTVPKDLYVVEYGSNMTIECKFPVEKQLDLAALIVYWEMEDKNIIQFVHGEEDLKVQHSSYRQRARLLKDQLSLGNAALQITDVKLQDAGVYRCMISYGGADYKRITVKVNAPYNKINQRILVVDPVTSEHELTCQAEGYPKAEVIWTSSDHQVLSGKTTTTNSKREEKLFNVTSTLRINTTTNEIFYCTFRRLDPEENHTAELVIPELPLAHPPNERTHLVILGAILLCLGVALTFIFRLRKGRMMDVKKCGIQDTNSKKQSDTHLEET

B1: PR001774 (antibody, V domains shown)
VH: EVQLVESGGGLVQPGGSLRLSCAASGFTFSSFAMTWVRQAPEKGLEWVSTISGSGDTTYYADSVKGRFTISRDSSKNTLYLQMNSLRAEDSAVYFCAKEATAMASDYYYGVDVWGQGTTVTVSS
With B1, in [1], the IC50 is ~2.12 nM. In addition, the EC50 was 1.27 nM in experiment [2] and 6.73 nM in experiment [3].

B2: PR004270 (bispecific antibody)
chain 1: EVQLVESGGGLVQPGGSLRLSCAASGFTFSSYWMSWVRQAPGKGLEWVANIKQEGSEKYYVDSVKGRFTISRDNAKNSLYLQMNSLRAEDTAVYYCARDRAVAGAFDIWGQGTMVTVSSASTKGPSVFPLAPSSKSTSGGTAALGCLVKDYFPEPVTVSWNSGALTSGVHTFPAVLQSSGLYSLSSVVTVPSSSLGTQTYICNVNHKPSNTKVDKKVEPKSC
chain 2: not shown
With B2, the EC50 was 1.55 nM in experiment [4] and 0.963 nM in experiment [5].

B3: PR007299 (antibody, V domains shown)
VH: EVQLVESGGGLVKPGGSLRLSCAASGFTFSDYQMSWLRQAPGKGLEWVSYISSSGRTIYYADSVKGRFTISRDNAKNSVSLQMNSLRAEDTAVYYCAREGRFFPGQGTPVTVSS
With B3, the EC50 in experiment [6] amounted to 17 nM; in [7] it was 118 nM. This molecule also registered an IC50 in [8] of 23.1 nM.

B4: PR007295 (antibody, V domains shown)
VH: EVQLVESGGGLVKPGGSLRLSCAASGFTFSDYYMSWIRQAPGKGLEWVSYISNNGSTIYYADSVKGRFTISRDNAKNSLYLQMNSLRAEDTAVYYCARVRPGGSGNYWDWFDPWGQGTMVTVSS
In the case of B4, the values for the EC50 in experiment [9] and in experiment [10] were 18.9 nM and 11.1 nM, respectively. The molecule further yielded a half-inhibitory concentration (IC50) in experiment [8] of 16.1 nM.

B5: PR007297 (antibody, V domains shown)
VH: EVQLVESGGGLVKPGGSLRLSCAASGFTFSDYYMSWIRQAPGKGLEWVSYISRSGSTIYYADSVKGRFTISRDNAKNSLYLQMNSLRAEDTAVYYCARVRPGGSGNYWDWFDPWGQGTLVTVSS
As for B5, the results for the EC50 in experiment [9] and in experiment [10] were 11.7 nM and 8.84 nM, respectively. Half-maximal inhibition in [8] (IC50) required 11.3 nM.

B6: PR007300 (antibody, V domains shown)
VH: EVQLVESGGGLVKPGGSLRLSCTTSGFTFSDYYMNWVRQAPGKGLEWVSYISNNGSTIYYADSVKGRFTISRDNAKNSLYLQMNSLRAEDTAVYYCARVRPGGSGNYWDWFDPWGQGTPVTVSS
For B6, the EC50 in experiment [6] was determined as 2.77 nM; in experiment [7] it was 1.94 nM. The molecule also returned an IC50 in experiment [8] of 2.87 nM.

B7: PR001768 (antibody, V domains shown)
VH: EVQLLESGGGLVQPGGSLRLSCAASGFTFSNYAMTWVRQAPGKGLEWVSSISGSGDSTYYADSVKGRFTISRDNSKNTLYLQMNSLRAEDTAVYYCAKEGTGTTSDYYYNVDVWGQGTTVTVSS
In the case of B7, the EC50 is 0.846 nM in [2] and 6.97 nM in experiment [3].

B8: PR001771 (antibody, V domains shown)
VH: EVQLLESGGGLVQPGGSLRLSCAASGFTFSNYAMTWVRQPPGKGLEWVSSISGSGGSTYYADSVKGRFTISRDNSKNTLYLQMNSLRAEDTAVYYCAKEGTGTTSDYYYNVDVWGQGTTVTVSS
For the molecule B8, in experiment [1], the IC50 came to 21.6 nM. Also, the EC50 was 0.532 nM in [2] and 3.77 nM in experiment [3].

B9: PR003550 (bispecific antibody)
light: DIQMTQSPSTLSASVGDRVTVTCRASQSIYIWLAWYQQKPGKAPNLLIYKASSLETGVPSRFSGSGSGTEFTLTISSLQPDDFATYYCQQYYGSSRTFGQGTKVEIKRTVAAPSVFIFPPSDEQLKSGTASVVCLLNNFYPREAKVQWKVDNALQSGNSQESVTEQDSKDSTYSLSSTLTLSKADYEKHKVYACEVTHQGLSSPVTKSFNRGEC
heavy: EVQLVESGGGLVQPGGSLRLSCAASGFTFSSYWMSWVRQAPGKGLEWVANIKQEGSEKYYVDSVKGRFTISRDNAKNSLYLQMNSLRAEDTAVYYCARDRAVAGAFDIWGQGTMVTVSSASTKGPSVFPLAPSSKSTSGGTAALGCLVKDYFPEPVTVSWNSGALTSGVHTFPAVLQSSGLYSLSSVVTVPSSSLGTQTYICNVNHKPSNTKVDKKVEPKSCDKTHTCPPCPAPEAAGGPSVFLFPPKPKDTLMISRTPEVTCVVVDVSHEDPEVKFNWYVDGVEVHNAKTKPREEQYNSTYRVVSVLTVLHQDWLNGKEYKCKVSNKALGAPIEKTISKAKGQPREPQVYTLPPSREEMTKNQVSLTCLVKGFYPSDIAVEWESNGQPENNYKTTPPVLDSDGSFFLYSKLTVDKSRWQQGNVFSCSVMHEALHNHYTQKSLSLSPGEPKSSDKTHTPPPPPRTEVQLVESGGGVVQPGGSLRLSCAASGFTFSNYAMTWVRQAPEKGLEWVSSISGSGVSTYYADSVKGRFTISRDNSKNTLYLQMTRLTAEDTAVYFCAKEGSSETDDHYYNVDVWGQGTTVTVSS
For the molecule B9, the values for the EC50 in [11] and in experiment [5] were 1.32 nM and 1.11 nM, respectively.

B10: PR004268 (bispecific antibody)
light: DIQMTQSPSTLSASVGDRVTVTCRASQSIYIWLAWYQQKPGKAPNLLIYKASSLETGVPSRFSGSGSGTEFTLTISSLQPDDFATYYCQQYYGSSRTFGQGTKVEIKRTVAAPSVFIFPPSDEQLKSGTASVVCLLNNFYPREAKVQWKVDNALQSGNSQESVTEQDSKDSTYSLSSTLTLSKADYEKHKVYACEVTHQGLSSPVTKSFNRGEC
heavy: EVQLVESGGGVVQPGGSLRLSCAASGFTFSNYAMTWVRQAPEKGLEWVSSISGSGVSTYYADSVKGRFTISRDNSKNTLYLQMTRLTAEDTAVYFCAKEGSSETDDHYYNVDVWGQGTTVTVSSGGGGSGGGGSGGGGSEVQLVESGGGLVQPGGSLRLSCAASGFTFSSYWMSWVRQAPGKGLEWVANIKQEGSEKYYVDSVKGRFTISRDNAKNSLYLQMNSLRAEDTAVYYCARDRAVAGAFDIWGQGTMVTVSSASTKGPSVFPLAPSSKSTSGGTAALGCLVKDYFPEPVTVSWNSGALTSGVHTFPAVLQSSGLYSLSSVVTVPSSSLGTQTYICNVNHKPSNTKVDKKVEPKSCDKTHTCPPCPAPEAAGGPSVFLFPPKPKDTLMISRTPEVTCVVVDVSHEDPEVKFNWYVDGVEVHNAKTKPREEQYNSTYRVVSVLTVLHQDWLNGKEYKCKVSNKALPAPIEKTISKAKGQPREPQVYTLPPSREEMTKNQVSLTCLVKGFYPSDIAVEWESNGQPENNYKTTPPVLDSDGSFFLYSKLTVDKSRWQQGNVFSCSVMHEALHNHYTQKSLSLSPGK
As for B10, the EC50 in [4] came to 0.621 nM; in experiment [5], 1.2 nM.

B11: PR007298 (antibody, V domains shown)
VH: EVQLVESGGGLVKPGGSLRLSCAASGFTFSDYYMSWVRQAPGKGLEWVSYISSSGSTIDYADSVKGRFTISRDNAKNSLFLEMNSLRAEDTAVYYCAREREEVAGTLDFDNWGQGTLVTVSS
Turning to B11, the concentration for a half-maximal effect (EC50) in experiment [6] stood at 3.71 nM; in experiment [7] it was 2.33 nM. For the same molecule, the IC50 in experiment [8] was found to be 6.7 nM.

B12: PR007296 (antibody, V domains shown)
VH: EVQLVESGGGLVKPGGSLRLSCVASGFTFSDYYMSWFRQAPGKGLEWVSYISGSGTTIDYADSVKGRFTISRDNAKNSLYLQMNSLRAEDTAVYYCAREREAVAGTLDFDNWGQGTPVTVSS
For B12, the EC50 in [9] came out at 3.81 nM; in experiment [10] it was 3.28 nM. In [8], this molecule returned an IC50 of 4.19 nM.

B13: PR007293 (antibody, V domains shown)
VH: EVQLVESGGGLVKPGGSLRLSCAASGFTFSDYYMSWFRQAPGKGLEWVSYINSSGSTIYYEYSVKGRFTISRDNAKNSLYLQMNSLRAEDTAVYYCAREREEVAGTLDFDYWGQGTLVTVSS
In the case of B13, the EC50 in experiment [12] stood at 2.1 nM; in [13], 2.25 nM. For the same molecule, in experiment [8], the IC50 was found to be 11.2 nM.

B14: PR001837 (antibody, V domains shown)
VH: EVQLLESGGGLVQPGGSLRLSCEASGFTFSSYAMSWVRQAPEKGLEWVSSISGSGGSTFYADSVKGRFTISRDNSKNTLYLQMNSLRAEDTAVYYCAKEGTTETDDYHYNMDVWGQGTTVTVSS
In turn, B14 displayed an IC50 in experiment [14] of 1.96 nM. Besides, the EC50 in experiment [15] came to 1.63 nM; in experiment [16], 0.386 nM.

B15: PR001840 (antibody, V domains shown)
VH: EVQLVESGGGLVQPGGSLRLSCAASGFTFSSYWMHWVRQAPGKGLVWVSRINSDGSSTSYADSVQGRFTISRDNAKNTLYLQMNSLRAEDTAVYYCVRKGSSSYYHYSIEDDWGQGTLVTVSS
Molecule B15 gave an IC50 in [14] of 2.58 nM. In addition, the EC50 was determined as 1.25 nM in experiment [15] and 0.37 nM in experiment [16].

As usually defined, the IC50 is the midpoint of a concentration-inhibition curve. As a reminder, the EC50 is the concentration needed to bring the measured effect to its halfway point.
